Test results reported in patent publication US20150344570A1 (published 2015).

T1: FcγRIIb (human, UniProt P31994 43-217)
T1 construct: extracellular domain; also called FcgRIIb; 2b
T1 sequence (looked up): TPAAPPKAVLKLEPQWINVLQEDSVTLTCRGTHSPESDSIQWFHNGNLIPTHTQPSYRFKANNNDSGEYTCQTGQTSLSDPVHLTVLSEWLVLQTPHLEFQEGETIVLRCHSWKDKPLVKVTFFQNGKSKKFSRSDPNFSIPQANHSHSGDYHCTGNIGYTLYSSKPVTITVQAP

T2: FcγRIIa H (human, UniProt P12318 34-217)
T2 construct: extracellular domain; also called FcgRIIa H; FcγRIIa type H
T2 sequence (looked up): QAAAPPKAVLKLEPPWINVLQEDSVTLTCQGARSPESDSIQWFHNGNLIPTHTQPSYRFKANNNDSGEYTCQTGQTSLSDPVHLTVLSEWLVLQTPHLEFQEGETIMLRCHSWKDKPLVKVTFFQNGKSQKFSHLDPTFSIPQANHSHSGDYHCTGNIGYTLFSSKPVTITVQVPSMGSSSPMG

B1: GpH7-A5/GpH7-B3 variant G237_04F/GpL16-k0 (antibody, human IgG1, kappa)
heavy 1: not shown
heavy 2: not shown
light: DIVMTQSPLSLPVTPGEPASISCQASESLVHSNRNTYLHWYLQKPGQSPQLLIYKVSNRFSGVPDRFSGSGSGTDFTLKISRVEAEDVGVYYCSQNTHVPPTFGQGTKVEIERTVAAPSVFIFPPSDEQLKSGTASVVCLLNNFYPREAKVQWKVDNALQSGNSQESVTEQDSKDSTYSLSSTLTLSKADYEKHKVYACEVTHQGLSSPVTKSFNRGEC
notes: Heterodimerized antibody, alteration in one H chain only; also called He Ab G237F
B2: GpH7-A5/GpH7-B3 variant G237_08L/GpL16-k0 (antibody, human IgG1, kappa)
heavy 1: not shown
heavy 2: not shown
light: B1 light
notes: Heterodimerized antibody, alteration in one H chain only; also called He Ab G237L
B3: GpH7-A5/GpH7-B3 variant G237_18N/GpL16-k0 (antibody, human IgG1, kappa)
heavy 1: not shown
heavy 2: not shown
light: B1 light
notes: Heterodimerized antibody, alteration in one H chain only; also called He Ab G237N
B4: GpH7-A5/GpH7-B3 variant G237_10E/GpL16-k0 (antibody, human IgG1, kappa)
heavy 1: not shown
heavy 2: not shown
light: B1 light
notes: Heterodimerized antibody, alteration in one H chain only; also called He Ab G237E
B5: GpH7-A5/GpH7-B3 variant G237_06M/GpL16-k0 (antibody, human IgG1, kappa)
heavy 1: not shown
heavy 2: not shown
light: B1 light
notes: Heterodimerized antibody, alteration in one H chain only; also called He Ab G237M
B6: GpH7-A5/GpH7-B3 variant L235_20W/GpL16-k0 (antibody, human IgG1, kappa)
heavy 1: not shown
heavy 2: not shown
light: B1 light
notes: Heterodimerized antibody, alteration in one H chain only; also called He Ab L235W
B7: GpH7-A5/GpH7-B3 variant L234_10E/GpL16-k0 (antibody, human IgG1, kappa)
heavy 1: not shown
heavy 2: not shown
light: B1 light
notes: Heterodimerized antibody, alteration in one H chain only; also called He Ab L234E
B8: GpH7-A5/GpH7-B3 variant G237_13S/GpL16-k0 (antibody, human IgG1, kappa)
heavy 1: not shown
heavy 2: not shown
light: B1 light
notes: Heterodimerized antibody, alteration in one H chain only; also called He Ab G237S
B9: GpH7-A5/GpH7-B3 variant G237_09D/GpL16-k0 (antibody, human IgG1, kappa)
heavy 1: not shown
heavy 2: not shown
light: B1 light
notes: Heterodimerized antibody, alteration in one H chain only; also called He Ab G237D
B10: GpH7-A5/GpH7-B3 variant L234_09D/GpL16-k0 (antibody, human IgG1, kappa)
heavy 1: not shown
heavy 2: not shown
light: B1 light
notes: Heterodimerized antibody, alteration in one H chain only; also called He Ab L234D
B11: GpH7-A5/GpH7-B3 variant L235_09D/GpL16-k0 (antibody, human IgG1, kappa)
heavy 1: not shown
heavy 2: not shown
light: B1 light
notes: Heterodimerized antibody, alteration in one H chain only; also called He Ab L235D
B12: GpH7-A5/GpH7-B3 variant G237_16H/GpL16-k0 (antibody, human IgG1, kappa)
heavy 1: not shown
heavy 2: not shown
light: B1 light
notes: Heterodimerized antibody, alteration in one H chain only; also called He Ab G237H
B13: GpH7-A5/GpH7-B3 variant G237_11K/GpL16-k0 (antibody, human IgG1, kappa)
heavy 1: not shown
heavy 2: not shown
light: B1 light
notes: Heterodimerized antibody, alteration in one H chain only; also called He Ab G237K
B14: GpH7-A5/GpH7-B3 variant G237_14T/GpL16-k0 (antibody, human IgG1, kappa)
heavy 1: not shown
heavy 2: not shown
light: B1 light
notes: Heterodimerized antibody, alteration in one H chain only; also called He Ab G237T
B15: GpH7-A5/GpH7-B3 variant G237_15Y/GpL16-k0 (antibody, human IgG1, kappa)
heavy 1: not shown
heavy 2: not shown
light: B1 light
notes: Heterodimerized antibody, alteration in one H chain only; also called He Ab G237Y
B16: GpH7-A5/GpH7-B3 variant G237_20W/GpL16-k0 (antibody, human IgG1, kappa)
heavy 1: not shown
heavy 2: not shown
light: B1 light
notes: Heterodimerized antibody, alteration in one H chain only; also called He Ab G237W
B17: GpH7-A5/GpH7-B3 variant G237_19Q/GpL16-k0 (antibody, human IgG1, kappa)
heavy 1: not shown
heavy 2: not shown
light: B1 light
notes: Heterodimerized antibody, alteration in one H chain only; also called He Ab G237Q

target: T1, FcγRIIb; experiment: SPR (Biacore), antibody captured, FcγR analyte; binding relative to GpH7-A5/GpH7-B3/GpL16-k0 = 100

Row | He/Con_2b | Binder
1 | 149 % of control | B1
2 | 148 % of control | B2
3 | 180 % of control | B3
4 | 114 % of control | B4
5 | 130 % of control | B5
6 | 147 % of control | B6
7 | 118 % of control | B7
8 | 111 % of control | B8
9 | 223 % of control | B9
10 | 150 % of control | B10
11 | 106 % of control | B11
12 | 55.2 % of control | B12
13 | 9 % of control | B13
14 | 54.8 % of control | B14
15 | 152 % of control | B15
16 | 193 % of control | B16
17 | 108 % of control | B17

target: T2, FcγRIIa H; experiment: as above

Row | He/Con_2aH | Binder
18 | 41.4 % of control | B1
19 | 13.9 % of control | B2
20 | 15.2 % of control | B3
21 | 15.1 % of control | B4
22 | 17.8 % of control | B5
23 | 118 % of control | B6
24 | 88.3 % of control | B7
25 | 29.8 % of control | B8
26 | 11.1 % of control | B9
27 | 89.9 % of control | B10
28 | 75.8 % of control | B11
29 | 16.4 % of control | B12
30 | 5.8 % of control | B13
31 | 31.8 % of control | B14
32 | 25.4 % of control | B15
33 | 31.6 % of control | B16
34 | 26.5 % of control | B17

target: T2, FcγRIIa H; experiment: SPR (Biacore); He/Con_2aH divided by He/Con_2b (FcγRIIa H over FcγRIIb)

Row | He_2aH/2b (IIaH/IIb) [ratio] | Binder
35 | 0.28 | B1
36 | 0.09 | B2
37 | 0.08 | B3
38 | 0.13 | B4
39 | 0.14 | B5
40 | 0.8 | B6
41 | 0.75 | B7
42 | 0.27 | B8
43 | 0.05 | B9
44 | 0.6 | B10
45 | 0.71 | B11
46 | 0.3 | B12
47 | 0.64 | B13
48 | 0.58 | B14
49 | 0.17 | B15
50 | 0.16 | B16
51 | 0.25 | B17
